Reference: the supplement of paper PMC10567573

B1: ZER1 (parent)
chain: FDGPEAWGVCEPQREEVEERMWAA
B2: TBX5 (parent)
chain: FHEVGTEMIITKAGRRMFPSYKVK

Variants of: B1
Assay: protein stability index of a GFP-peptide fusion (GPS, HEK-293T) (PSI 1-6); higher = more stable
Conditions: c terminus: a fixed tail appended
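Further: lentivirally expressed fusions sorted by FACS into six bins by GFP to DsRed ratio, PSI derived from sequencing read proportions per bin multiplied by bin number.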

Protein stability index, by site and new letter:
C10: K 3.48; P 3.64; W 2.6; N 3.26; M 3.13; H 3.64; R 2.6; E 3.93; D 4.42; Y 2.86; S 2.66; T 3.3; Q 3.26; F 3.21; I 2.86; L 3.15; G 4.03; V 2.55; A 3.02
D2: W 3.21; F 1.68; I 5.1; Q 2.69; E 2.08; L 2.62; R 1.8; K 3.26
F1: Q 4.88; L 3.93; E 4.99; S 4.77; I 4.69; C 4.17; M 3.3; W 4.5; D 4.33; A 5.03; G 4.72; K 3.97; T 4.94; Y 3.15; R 4.45; N 4.87; P 5.04
E19: G 2.15; H 1.91; F 2.1; A 2.68; D 2.48; C 2.05
Q13: I 2.76; S 2.71; H 2.44; N 2.94; E 2.86; V 3.23; T 2.43; M 2.46; G 2.75; W 2.17; A 2.72; D 2.92; Y 2.39; R 2.21; F 2.31; L 2.68; K 2.91
R14: P 3.26; M 3.08; A 2.18; E 3.16; Y 2.46; C 2.25; N 2.86; G 3.36; Q 2.09; I 2.97; H 2.31; F 2.74; S 2.56; D 2.88; L 1.8; T 2.54; W 2.52; V 2.16
P12: W 3.81; V 2.47; F 2.93; T 3.17; K 2.9; I 2.31; Q 3.22; R 3.53; H 3.17; L 2.47; G 2.69; E 3.17; Y 2.64; D 2.88; M 3.3; S 3.14; C 2.33
E15: A 2.45; F 1.56; Q 2.5; Y 2.32; N 2.31; V 2.63; S 2.13; C 3.02; L 2.2; M 2.34; P 1.46; H 1.79; G 2.19; T 2.62; R 2.79; D 2.43; K 2.92; I 2.02; W 1.52
E18: W 2.04; L 2.11; A 2.27; C 2; P 2.69; K 1.57; I 2.21; V 2.12; F 2.5; M 1.84; N 1.92; T 2.62; G 3.36; R 2.53; D 2.68; H 3.04; Y 2.08; Q 1.95; S 2.52
E16: G 2.04; N 2.37; C 2.24; P 2.04; L 1.62; H 2.66; R 2.16; I 2.34; V 2.02; K 1.98; F 2.62; Y 2.11; T 2.72; A 2.33; M 1.99; D 2.14; W 1.63; S 2.25
G8: H 2.33; E 4.19; L 3.64; Q 2.74; P 4.17; C 2.33; A 1.96; K 2.25; N 2.62; R 2.42; F 1.55; S 1.95; M 1.79; I 2.25; Y 3.39; V 1.6; D 3.75
V17: P 2.65; L 2.34; I 2.26; D 2.61; H 2.77; G 2.36; W 2.44; M 2.26; A 2.27; S 2.64; E 3.18; R 2.24; C 2.3; T 2.47; K 2.41; Q 2.55; F 3.62; N 3.28; Y 2.75
E11: P 2.64; Q 1.9; T 2.58; N 1.83; K 2.12; F 1.89; H 2.55; V 1.96; I 3.01; S 2.73; A 1.87; M 3.24; L 1.85; C 2.15; W 1.81; R 1.93; D 2.67; Y 1.87
P4: D 3.89; H 1.79; L 2.47; R 2.81; V 2.48; M 3.65; F 1.91; I 3.23; S 3.29; K 3.02; C 2.63; Y 1.95; A 2.48; G 2.73; Q 3.25; E 4.48; T 3.25
A6: N 3.6; G 3.38; K 3.02; P 3.77; C 2.57; I 2.43; Y 1.82; T 2.48; S 3.53; R 3.35; D 4.67; Q 3.59; W 1.63; L 1.56; E 4.45; H 2.38; V 2.76
E5: K 3.13; W 2.54; N 1.95; P 3.42; V 3.33; D 2.99; Y 2.76; R 3.48; S 2.61; F 3.67; H 2.59; G 3.26; I 2.94; Q 3.54; A 2.82; C 3.73; L 1.64
V9: F 2.94; E 4.03; I 2.09; H 3.18; Y 2.48; W 3.22; M 2.63; K 2.59; D 4.92; G 3.25; P 3.08; R 2.5; A 3.21; C 2.03; N 3.35; T 3.15; Q 3.05; S 4.12
G3: D 2.56; H 1.87; M 2.1; E 1.52; F 2.06; P 4.42; N 2.58; I 1.78; W 2.12; T 1.98; V 1.63; S 1.96; C 3.88; L 1.62
W7: R 3.97; S 4.92; M 3.64; Q 5.22; I 4.89; E 4.54; N 4.58; D 5.1; C 4.66; G 4.94; P 4.52; H 4.63; T 4.69; A 4.29; Y 3.98; V 4.98; K 4.81

Variants of: B2
Assay: as above
Conditions: c terminus: a fixed tail appended

Protein stability index: each site, then its substitutions
V23: T 2.14; Y 1.82; W 2.2
K24: W 1.65; P 1.55; L 1.99; G 2.03; Y 2.08; V 1.65; A 1.99; C 2.62; F 2.83; N 1.08; E 1.89; R 1.51; I 1.54; S 1.15; Q 1.33; D 2.2; T 2.41; M 2.55; H 1.59
